Measured values taken from patent publication US7033593.
Where “and” joins values, the source holds several entries; their conditions need not be identical. Equal entries are not always repeated.

How the values were obtained:
[1] = target: soluble HIV 89.6 gp120 envelope protein (HIV 89.6 (Clade B) primary isolate) (UniProt Q73372)
[2] = target: soluble CD4 (UniProt P01730); assay: SPR, preliminary experiments
[3] = target: soluble CD4 (UniProt P01730); assay: SPR, gp120 over immobilised CD4
[4] = target: soluble CD4 (UniProt P01730); assay: SPR (BIAcore), gp120 and CD4
[5] = target: HR-2 peptide DP178 (HIV-1 89.6)
[6] = target: soluble HIV 89.6 gp120 envelope protein (HIV 89.6 (Clade B) primary isolate) (UniProt Q73372); remark: listed apart in the source
[7] = target: A32-gp120 complex (HIV 89.6 gp120 bound to mab A32) (HIV 89.6 (Clade B) primary isolate) (UniProt Q73372); assay: SPR SA-chip assay (FIG. 28B)
[8] = target: A32-gp120 complex (HIV 89.6 gp120 bound to mab A32) (HIV 89.6 (Clade B) primary isolate) (UniProt Q73372); assay: SPR SA-chip assay, single component
[9] = target: soluble HIV 89.6 gp120 envelope protein (HIV 89.6 (Clade B) primary isolate) (UniProt Q73372); assay: SPR SA-chip assay, gp120 over scrDP178 surface
[10] = target: soluble HIV 89.6 gp120 envelope protein (HIV 89.6 (Clade B) primary isolate) (UniProt Q73372); assay: SPR SA-chip assay, 89.6 gp120 over scrDP178 surface
[11] = target: scrambled sequence DP178 peptide; assay: SPR SA-chip assay, scrDP178 surface

## mab 17b (antibody)
[1]
  % blocking of DP178 binding: 80%

## soluble, monomeric gp120 JRFL
[2]
  t1/2 of binding: 14 min
[3]
  Kd: 146 nM
  koff: 0.00088 s⁻¹
[4]
  Kd: 150 nM
  koff: 0.000884 s⁻¹
  kon: 6000 M⁻¹ s⁻¹

## soluble HIV 89.6 gp120 envelope protein, Q73372 32-508
[5]
  koff: 0.017 s⁻¹

## mAb 48d (antibody)
[1]
  % blocking of DP178 binding: 80%

## scrambled sequence DP178 peptide
[6]
  band density: 0.6 ODunits/mm^2
[7]
  RU: < 200 RU
[8]
  koff: 0.017 s⁻¹
[9]
  RU: 50 RU
[10]
  RU (background signal): 10 RU and 20 RU

## soluble, monomeric gp120 DH12
[2]
  t1/2 of binding: 25 min
[3]
  Kd: 96 nM
  koff: 0.00047 s⁻¹
[4]
  Kd: 78 nM
  koff: 0.000386 s⁻¹
  kon: 4900 M⁻¹ s⁻¹
  t1/2: 30 min

## mab A32 (antibody)
[11]
  RU (background signal): 10 RU and 20 RU

## mab 19b (antibody)
[1]
  % blocking of DP178 binding: 68%
